Consider seven molecules from patent publication US20200109169A1 (BGI SHENZHEN, published 2020).

The experiment addresses T1, HLA-A0201 on the surface of T2 cells (human).
T1 construct: MHC class I molecule on T2 cells; surface HLA-A*02:01 was read with an anti-HLA-A*02:01 FITC monoclonal antibody after overnight loading with peptide
Briefly: T2 cell peptide loading, flow cytometry with anti-HLA-A*02:01 FITC antibody, peptide 100 uM. For orientation: A flow cytometer gives signals particle by particle.

Method: After centrifugation at 200 g for 5 minutes for cell collection, the collected cells were washed with phosphate buffer saline (PBS) buffer twice, before incubated with anti-HLA-A*02:01 FITC monoclonal antibody at 4° C. for 30 minutes. The mean fluorescence intensity of cells was then detected and analyzed by the flow cytometry (BD FACSJazz™)) and its software.

Take PLAFLIFNI (Made by solid phase synthesis) [wild-type polypeptide PLAFLIFNI (SEQ ID NO: 7)]: the “FI (fluorescence index)” value was determined as 1.63 and the Mean fluorescence intensity came to 650.
For TMAFLIFNL (Made by solid phase synthesis) [mutant polypeptide's variant TMAFLIFNL (SEQ ID NO: 5)], in that order: 1.79 and 690.
On to TLAFLIFNV (Made by solid phase synthesis) [mutant polypeptide's variant TLAFLIFNV (SEQ ID NO: 3)], for which the “FI (fluorescence index)” value stood at 1.51 and the Mean fluorescence intensity came to 620.

B1: mutant polypeptide TLAFLIFNI (SEQ ID NO: 1) (peptide)
peptide: TLAFLIFNI
notes: Made by solid phase synthesis, purity >90% by HPLC
On to B1, for which the “FI (fluorescence index)” value amounted to 1.6 and the Mean fluorescence intensity stood at 643.
Regarding TLAFLIFNL (Made by solid phase synthesis) [mutant polypeptide's variant TLAFLIFNL (SEQ ID NO: 4)], the “FI (fluorescence index)” value turned out to be 1.49 and the Mean fluorescence intensity turned out to be 615.
For TMAFLIFNI (Made by solid phase synthesis) [mutant polypeptide's variant TMAFLIFNI (SEQ ID NO: 2)], the “FI (fluorescence index)” value was 1.67 and the Mean fluorescence intensity was 660.
With TMAFLIFNV (Made by solid phase synthesis) [mutant polypeptide's variant TMAFLIFNV (SEQ ID NO: 6)], the “FI (fluorescence index)” value came out at 1.74 and the Mean fluorescence intensity is 677.
